According to patent US9670288B2, “Osteoprotegerin in neuroprotection” (Massachusetts Eye and Ear Infirmary, priority 2011, dated 2017):
Entries after “also recorded” stand apart in the source; their conditions may differ.

B1: OPG: Osteoprotegerin, cytokine receptor of the TNF receptor superfamily; recombinant protein from R & D Systems (protein)
chain: MNNLLCCALVFLDISIKWTTQETFPPKYLHYDEETSHQLLCDKCPPGTYLKQHCTAKWKTVCAPCPDHYYTDSWHTSDECLYCSPVCKELQYVKQECNRTHNRVCECKEGRYLEIEFCLKHRSCPPGFGVVQAGTPERNTVCKRCPDGFFSNETSSKAPCRKHTNCSVFGLLLTQKGNATHDNICSGNSESTQKCGIDVTLCEEAFFRFAVPTKFTPNWLSVLVDNLPGTKVNAESVERIKRQHSSQEQTFQLLKLWKHQNKDQDIVKKIIQDIDLCENSVQRHIGHANLTFEQLRSLMESLPGKKVGAEDIEKTIKACKPSDQILKLLSLWRIKNGDQDTLKGLMHALKHSKTYHFPKTVTQSLKKTIRFLHSFTMYKLYQKLFLEMIGNQVQSVKISCL
modifications: homo sapiens OPG
notes: Osteoprotegerin, cytokine receptor of the TNF receptor superfamily; recombinant protein from R & D Systems
B2: RANKL: RANK ligand, from R & D Systems (protein, UniProt O14788 140-317, looked up)
Tumor necrosis factor ligand …: IRAEKAMVDGSWLDLAKRSKLEAQPFAHLTINATDIPSGSHKVSLSSWYHDRGWAKISNMTFSNGKLIVNQDGFYYLYANICFRHHETSGDLATEYLQLMVYVTKTSIKIPSSHTLMKGGSTKYWSGNSEFHFYSINVGGFFKLRSGEEISIEVSNPSLLDPDQDATYFGAFKVRDID
B3: TRAIL: TNF-related apoptosis-inducing ligand, recombinant (protein, UniProt P50591 1-281, looked up)
Tumor necrosis factor ligand …: MAMMEVQGGPSLGQTCVLIVIFTVLLQSLCVAVTYVYFTNELKQMQDKYSKSGIACFLKEDDSYWDPNDEESMNSPCWQVKWQLRQLVRKMILRTSEETISTVQEKQQNISPLVRERGPQRVAAHITGTRGRSNTLSSPNSKNEKALGRKINSWESSRSGHSFLSNLHLRNGELVIHEKGFYYIYSQTYFRFQEEIKENTKNDKQMVQYIYKYTSYPDPILLMKSARNSCWSKDAEYGLYSIYQGGIFELKENDRIFVSVTNEHLIDMDHEASFFGAFLVG

Tests used:
Assay type in all cases: cell-based, mice
[1] = test system: spiral ganglion cells (SGCs) / Schwann cells; assay: H2O2 induced oxidative cell death of cultured spiral ganglion cells (nuclear condensation, Hoechst 33342); conditions: for H2O2 induced oxidative cell death: opg −/− SGCs/Schwann cells, pretreatment followed by co-treatment, OPG 100 ng/L, PD 98059 20 nM, zoledronate 10 μM, 500 μM H2O2
Schwann cells = assay: TRAIL induced cell death (cleaved caspase 3) in cultured Schwann cells; conditions: for TRAIL induced cleaved caspase 3 (cell death): opg −/− Schwann cells, pretreatment, TRAIL 100 ng/ml, OPG 100 ng/l, PD98059 20 nM, zoledronate 10 μM
ERK kinase [2] = assay: H2O2 induced ERK kinase activation in cultured Schwann cells / SGCs (immunoblot, p-ERK); conditions: opg −/− Schwann cells; pre-treatment 3 hours and co-treatment; OPG 100 ng/L, PD 98059 20 nM, zoledronate 10 μM; 500 μM H2O2
ERK kinase [3] = assay: TRAIL induced ERK phosphorylation in cultured Schwann cells (immunoblot); conditions: for TRAIL induced ERK phosphorylation / ERK activation: opg −/− Schwann cells, pretreatment, TRAIL 100 ng/ml, OPG 100 ng/l, PD98059 20 nM, zoledronate 10 μM
opg −/− spheres [4] = assay: Apoptosis in floating spiral ganglion spheres (cleaved caspase 3 staining); conditions: third generation opg −/− spheres, Rankl 100 ng/ml, OPG 100 ng/ml, zoledronate 1 μM, 3 days, passaged
Method: For each experiment, spiral ganglia of four to six 1-3 day old WT or opg −/− mice were dissected in HBSS. The SGCs (neurons and glia) were dissociated using trypsin (0.25%) for 13 min in PBS at 37° C. The enzymatic digestion was stopped by adding 10% FBS in DMEM-high glucose medium. The tissue was washed twice and gently triturated. The cell suspension was passed through a 70 μm cell strainer (BD Labware). Single cells were cultured in DMEM-high glucose and F12 (mixed 1:1) supplemented with N2 and B27 (Invitrogen), EGF (20 ng/mL; Chemicon), bFGF (10 ng/mL; Chemicon), IGF-1 (50 ng/mL; Chemicon), and heparan sulfate (50 ng/mL; Sigma). Newly formed spheres were cultured in ultra-low-cluster plates (Costar) for 4 days and were termed first generation spheres. Spheres were subsequently passaged every 4 days until the third generation, when 5-10 spheres were collected and dissociated (Oshima K, Grimm C M, Corrales C E, Senn P, Martinez Monedero R, Géléoc GS, Edge A, Holt J R, Heller S. 2007. J Assoc Res Otolaryngol. 2007; 8:18-31). Spheres were passaged at a clonal level for 3 more times. Before each passage, the sphere morphology was assessed and the spheres were counted using the Metamorph counting software. At the third generation, spiral ganglion spheres from WT and opg −/− mice were separated into 4 groups and treated with Rankl (100 ng/ml), OPG (100 ng/ml) or zoledronate (1 μM). The control group was untreated. After 3 days of treatment, the spheres were passaged and treated again for 3 days. Twelve hours before plating, proliferating cells in the spheres were labeled with BrdU (3 μg/ml). After 12 hours, the spheres were plated for 1 hour on poly-L-lysine (0.01%, Cultrex)-coated glass coverslips (Marienfeld GmbH, Germany), fixed in 4% paraformaldehyde for 10 min, treated with 1N HCl for antigen retrieval for BrdU staining, incubated for 1 hour in blocking solution (0.3% Triton, 15% goat serum in 1×PBS), and incubated overnight with either anti-cleaved caspase3 antibody to assess cell death, or anti-BrdU antibody to assess cell proliferation. After 3 washing steps with 1×PBS, the spheres were incubated in secondary antibody for 2 hours (568 Alexa Fluor anti rat or anti mouse). Nuclei were stained with DAPI. Staining was visualized by epifluorescence microscopy (Axioskop 2 Mot Axiocam, Zeiss). Counting was done with the Metamorph software.

opg −/− spheres [5] = assay: Proliferation of floating spiral ganglion spheres (BrdU staining); conditions: third generation opg −/− spheres, Rankl 100 ng/ml, OPG 100 ng/ml, zoledronate 1 μM, 3 days, passaged
Method: For each experiment, spiral ganglia of four to six 1-3 day old WT or opg −/− mice were dissected in HBSS. The SGCs (neurons and glia) were dissociated using trypsin (0.25%) for 13 min in PBS at 37° C. The enzymatic digestion was stopped by adding 10% FBS in DMEM-high glucose medium. The tissue was washed twice and gently triturated. The cell suspension was passed through a 70 μm cell strainer (BD Labware). Single cells were cultured in DMEM-high glucose and F12 (mixed 1:1) supplemented with N2 and B27 (Invitrogen), EGF (20 ng/mL; Chemicon), bFGF (10 ng/mL; Chemicon), IGF-1 (50 ng/mL; Chemicon), and heparan sulfate (50 ng/mL; Sigma). Newly formed spheres were cultured in ultra-low-cluster plates (Costar) for 4 days and were termed first generation spheres. Spheres were subsequently passaged every 4 days until the third generation, when 5-10 spheres were collected and dissociated (Oshima K, Grimm C M, Corrales C E, Senn P, Martinez Monedero R, Géléoc GS, Edge A, Holt J R, Heller S. 2007. J Assoc Res Otolaryngol. 2007; 8:18-31). Spheres were passaged at a clonal level for 3 more times. Before each passage, the sphere morphology was assessed and the spheres were counted using the Metamorph counting software. At the third generation, spiral ganglion spheres from WT and opg −/− mice were separated into 4 groups and treated with Rankl (100 ng/ml), OPG (100 ng/ml) or zoledronate (1 μM). […]

p38, JNK or NF-κB p65 = assay: p38, JNK and NF-κB p65 activity after TRAIL in cultured Schwann cells (immunoblot); conditions: opg −/− Schwann cells treated with TRAIL

| Molecule | H2O2 induced oxidative cell death [1] | TRAIL induced cleaved caspase 3 (cell death) (Schwann cells) | H2O2 induced ERK kinase activation (ERK kinase [2]) | TRAIL induced ERK phosphorylation / ERK activation (ERK kinase [3]) | apoptosis in opg−/− spheres (number of cleaved caspase 3 positive cells) (opg −/− spheres [4]) | proliferation of opg−/− spheres (number of BrdU positive cells) (opg −/− spheres [5]) | cell death without H2O2 treatment ([1]; opg −/− SGCs, no H2O2) | apoptosis in opg−/− spheres (number of cleaved caspase 3 positive cells) (opg −/− spheres [4]; listed as Rankl) | cleavage of caspase 3 / cell death caused by TRAIL itself (Schwann cells; Schwann cells treated with recombinant TRAIL (100 ng/ml)) | ERK phosphorylation caused by TRAIL itself (ERK kinase [3]; cells treated with TRAIL (100 ng/ml)) | p38, JNK or NF-κB p65 activity after TRAIL (p38, JNK or NF-κB p65) |
| --- | --- | --- | --- | --- | --- | --- | --- | --- | --- | --- | --- |
| COc1cccc(-c2cc(=O)c3ccccc3o2)c1N [PD 98059, reference compound] | rescued | suppressed | suppressed | suppressed |  |  |  |  |  |  |  |
| O=P(O)(O)C(O)(Cn1ccnc1)P(=O)(O)O [zoledronate, reference compound] | rescued | suppressed | suppressed | suppressed | reduced; also recorded: decreased | significantly enhanced; also recorded: increased |  |  |  |  |  |
| B1 | rescued | suppressed | suppressed | suppressed | reduced; also recorded: decreased | significantly enhanced; also recorded: increased | did not significantly affect |  |  |  |  |
| B2 |  |  |  |  | significantly increased |  |  | increased |  |  |  |
| B3 |  |  |  |  |  |  |  |  | increased; also recorded: induced cell death | activated | did not affect |
